Data published in publication PMC6451091, “NextPBM: a platform to study cell-specific transcription factor binding and cooperativity”.
Numbering of substitutions follows the chain as printed.

B1: PBM_PU1_IRF8_v2_1 (dsDNA)
DNA 1: GCCTAGCACTAAAAGAGGAAGTGGCAGATGTGCTAGGTCTTGATTCGCTTGACGCTGCTG
DNA 2: CAGCAGCGTCAAGCGAATCAAGACCTAGCACATCTGCCACTTCCTCTTTTAGTGCTAGGC
B2: PBM_PU1_IRF8_v2_4 (dsDNA)
DNA 1: B1 DNA 1 with T10G, G15C, C25A, A26C, G27A, T29C
DNA 2: B1 DNA 2 with A32G, C34T, T35G, G36T, C46G, A51C
B3: PBM_PU1_IRF8_v2_3 (dsDNA)
DNA 1: B1 DNA 1 with T10A, A11T, A14G, A26T, T29A
DNA 2: B1 DNA 2 with A32T, T35A, T47C, T50A, A51T
B4: PBM_PU1_IRF8_v2_6 (dsDNA)
DNA 1: B1 DNA 1 with T10G, A13G, G24A, C25A, G27T, A28T, T29A
DNA 2: B1 DNA 2 with A32T, T33A, C34A, G36T, C37T, T48C, A51C
B5: PBM_PU1_IRF8_v2_24 (dsDNA)
DNA 1: B1 DNA 1 with T10A, A11T, A14G, G24A, C25G, G27C, T29G
DNA 2: B1 DNA 2 with A32C, C34G, G36C, C37T, T47C, T50A, A51T
B6: PBM_PU1_IRF8_v2_5 (dsDNA)
DNA 1: B1 DNA 1 with T10A, A13T, G23C, G24A, C25G, T29G
DNA 2: B1 DNA 2 with A32C, G36C, C37T, C38G, T48A, A51T
B7: PBM_PU1_IRF8_v2_22 (dsDNA)
DNA 1: B1 DNA 1 with T10G, C25A, G27A, A28C, T29A
DNA 2: B1 DNA 2 with A32T, T33G, C34T, G36T, A51C
B8: PBM_PU1_IRF8_v2_23 (dsDNA)
DNA 1: B1 DNA 1 with T10C, A14T, G24A, C25G, G27C, A28T
DNA 2: B1 DNA 2 with T33A, C34G, G36C, C37T, T47A, A51G
B9: PBM_PU1_IRF8_v2_13 (dsDNA)
DNA 1: B1 DNA 1 with T10G, G23C, G24A, C25G, G27T, A28T, T29G
DNA 2: B1 DNA 2 with A32C, T33A, C34A, G36C, C37T, C38G, A51C
B10: PBM_PU1_IRF8_v2_2 (dsDNA)
DNA 1: GCCTAGCACGAAAAGGGGAAGTGTATTCCGTGCTAGGTCTTGATTCGCTTGACGCTGCTG
DNA 2: CAGCAGCGTCAAGCGAATCAAGACCTAGCACGGAATACACTTCCCCTTTTCGTGCTAGGC
B11: PBM_PU1_IRF8_v2_30 (dsDNA)
DNA 1: GCCTAGCACATTTTAAGGAAGTGAAACCCGTGCTAGGTCTTGATTCGCTTGACGCTGCTG
DNA 2: CAGCAGCGTCAAGCGAATCAAGACCTAGCACGGGTTTCACTTCCTTAAAATGTGCTAGGC
B12: PBM_PU1_IRF8_v2_16 (dsDNA)
DNA 1: GCCTAGCACAATATAGGGAAGTGCTTAACGTGCTAGGTCTTGATTCGCTTGACGCTGCTG
DNA 2: CAGCAGCGTCAAGCGAATCAAGACCTAGCACGTTAAGCACTTCCCTATATTGTGCTAGGC

Biological target: PU.1 (IVT) (UniProt P17947 1-270)
Experiment: PBM; 20 mM HEPES pH 7.9, 100 mM NaCl, 1 mM DTT, 0.2 mg/mL BSA, 0.02% Triton X-100, 2% milk, 0.4 mg/mL salmon testes DNA, 1 h; temperature not stated
Settings: protein: ivt; blunt
Procedure, shortened: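 PU.1, full-length and untagged, came from coupled human in vitro transcription/translation and was bound for 1 h to double-stranded DNA microarrays of 20-bp genomic sites and single-nucleotide variants in HEPES pH 7.9, 100 mM NaCl, 2% milk and salmon testes DNA. After antibody detection, the values were taken as z-scores of scanned fluorescence normalised by linear regression.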

Row | Binder | binding signal [z-score]
1 | B1 | 8.16
2 | B2 | 7.4
3 | B3 | 5.13
4 | B4 | 5.03
5 | B5 | 4.54
6 | B6 | 6.21
7 | B7 | 8.54
8 | B8 | 7.69
9 | B9 | 8.24
10 | B10 | 7.7
11 | B11 | 5.72
12 | B12 | 5.82
